Consider 58 molecules from patent publication US20220112244A1 (DOMPE FARMACEUTICI S P A, published 2022).

The assay concerns the target IL-17A (agonist in the IL-17RA/IL17RC dimerization assay) (UniProt Q16552 24-155). Description: cell-based or functional assay.

IL-17A (agonist in the IL-17RA/IL17RC dimerization assay), sequence (Q16552 24-155 limits assumed): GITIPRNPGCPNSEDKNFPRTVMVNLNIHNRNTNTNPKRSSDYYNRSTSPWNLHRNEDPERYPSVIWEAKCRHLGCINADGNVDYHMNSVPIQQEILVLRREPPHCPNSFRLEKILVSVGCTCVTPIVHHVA

For Ac-VMVTIPADLYEWIRR-NH2 [peptide of SEQ ID NO: 17], the “IC50 in IL-17RA/IL7RC dimerization assay” value was < 0.4 µM.

For the molecule Ac-IHVTIPADLWDWIND-NH2 [peptide of SEQ ID NO: 223], the “IC50 in IL-17RA/IL7RC dimerization assay” value is < 10 µM.

On to Ac-VHVTVPQELWEWVEE-NH2 [peptide of SEQ ID NO: 227], for which the “IC50 in IL-17RA/IL7RC dimerization assay” value was < 10 µM.

As to Ac-IHVTIVADLWDWINK-NH2 [peptide of SEQ ID NO: 189], the “IC50 in IL-17RA/IL7RC dimerization assay” value was < 10 µM.

Take Ac-IHVTIPLDLWDWINK-NH2 [peptide of SEQ ID NO: 193]: the “IC50 in IL-17RA/IL7RC dimerization assay” value is < 10 µM.

As for Ac-IHVTIPADLWDWIDK-NH2 [peptide of SEQ ID NO: 221], the “IC50 in IL-17RA/IL7RC dimerization assay” value is < 10 µM.

On to Ac-IHVTIPADLWDWPNK-NH2 [peptide of SEQ ID NO: 217], for which the “IC50 in IL-17RA/IL7RC dimerization assay” value is < 10 µM.

With Ac-IHVTIPADLWDWVEE-NH2 [peptide of SEQ ID NO: 15], the “IC50 in IL-17RA/IL7RC dimerization assay” value is < 0.4 µM.

Turning to Ac-VRGYVPADLWDWINK-NH2 [peptide of SEQ ID NO: 242], the “IC50 in IL-17RA/IL7RC dimerization assay” value was < 10 µM.

As for Ac-IHVTIPADLWDWKNK-NH2 [peptide of SEQ ID NO: 213], the “IC50 in IL-17RA/IL7RC dimerization assay” value is < 10 µM.

Take Ac-VRVTVPQELYEWVRR-NH2 [peptide of SEQ ID NO: 234]: the “IC50 in IL-17RA/IL7RC dimerization assay” value was < 10 µM.

As to Ac-VHVSVPQELWEWVRR-NH2 [peptide of SEQ ID NO: 231], the “IC50 in IL-17RA/IL7RC dimerization assay” value is < 10 µM.

Consider Ac-LRIYVPADLWDWINK-NH2 [peptide of SEQ ID NO: 241], for which the “IC50 in IL-17RA/IL7RC dimerization assay” value was < 10 µM.

Regarding Ac-IHVTIPIDLWDWINK-NH2 [peptide of SEQ ID NO: 196], the “IC50 in IL-17RA/IL7RC dimerization assay” value is < 10 µM.

In the case of Ac-IHVTIPADLWDWFNK-NH2 [peptide of SEQ ID NO: 218], the “IC50 in IL-17RA/IL7RC dimerization assay” value is < 10 µM.

For the molecule Ac-IHVTIPADLWDFINK-NH2 [peptide of SEQ ID NO: 210], the “IC50 in IL-17RA/IL7RC dimerization assay” value is < 10 µM.

Take Ac-IHVTIPADLWDYINK-NH2 [peptide of SEQ ID NO: 211]: the “IC50 in IL-17RA/IL7RC dimerization assay” value was < 10 µM.

For the molecule Ac-IHVTIPADAWDWINK-NH2 [peptide of SEQ ID NO: 201], the “IC50 in IL-17RA/IL7RC dimerization assay” value was < 10 µM.

Turning to Ac-IHVTIPADLFDWINK-NH2 [peptide of SEQ ID NO: 207], the “IC50 in IL-17RA/IL7RC dimerization assay” value was < 10 µM.

With Ac-VHVTVPQELFEWVEE-NH2 [peptide of SEQ ID NO: 228], the “IC50 in IL-17RA/IL7RC dimerization assay” value was < 10 µM.

Turning to Ac-VHVTVPQELWEWVRR-NH2 [peptide of SEQ ID NO: 224], the “IC50 in IL-17RA/IL7RC dimerization assay” value was < 10 µM.

For the molecule Ac-VHVTVPQELFEWVRR-NH2 [peptide of SEQ ID NO: 225], the “IC50 in IL-17RA/IL7RC dimerization assay” value was < 10 µM.

In the case of Ac-IHVTIPADLWDWINH-NH2 [peptide of SEQ ID NO: 222], the “IC50 in IL-17RA/IL7RC dimerization assay” value was < 10 µM.

For the molecule Ac-VRVTVPQELWEWVRR-NH2 [peptide of SEQ ID NO: 235], the “IC50 in IL-17RA/IL7RC dimerization assay” value was < 10 µM.

On to Ac-IHVTIPADLHDWINK-NH2 [peptide of SEQ ID NO: 206], for which the “IC50 in IL-17RA/IL7RC dimerization assay” value is < 10 µM.

With Ac-IHVTIPNDLWDWINK-NH2 [peptide of SEQ ID NO: 197], the “IC50 in IL-17RA/IL7RC dimerization assay” value is < 10 µM.

Regarding Ac-IHVTIPADVWDWINK-NH2 [peptide of SEQ ID NO: 204], the “IC50 in IL-17RA/IL7RC dimerization assay” value is < 10 µM.

Regarding Ac-IHVTIPADLWDHINK-NH2 [peptide of SEQ ID NO: 209], the “IC50 in IL-17RA/IL7RC dimerization assay” value was < 10 µM.

Regarding Ac-IHVTINADLWDWINK-NH2 [peptide of SEQ ID NO: 191], the “IC50 in IL-17RA/IL7RC dimerization assay” value was < 10 µM.

As for Ac-IHVTIPADLWDWGNK-NH2 [peptide of SEQ ID NO: 215], the “IC50 in IL-17RA/IL7RC dimerization assay” value was < 10 µM.

As for Ac-VMVTIPADLYEWINK-NH2 [peptide of SEQ ID NO: 16], the “IC50 in IL-17RA/IL7RC dimerization assay” value was < 0.4 µM.

As to Ac-IHVTIPADLWDWYNK-NH2 [peptide of SEQ ID NO: 219], the “IC50 in IL-17RA/IL7RC dimerization assay” value is < 10 µM.

As for Ac-IHVTIPADLWDWENK-NH2 [peptide of SEQ ID NO: 212], the “IC50 in IL-17RA/IL7RC dimerization assay” value is < 10 µM.

Ac-VKISVPADLWDWINK-NH2 [peptide of SEQ ID NO: 239]: the “IC50 in IL-17RA/IL7RC dimerization assay” value is < 10 µM.

In the case of Ac-VHFTVPQELYEWVRR-NH2 [peptide of SEQ ID NO: 238], the “IC50 in IL-17RA/IL7RC dimerization assay” value is < 10 µM.

For the molecule Ac-IHVTIPPDLWDWINK-NH2 [peptide of SEQ ID NO: 194], the “IC50 in IL-17RA/IL7RC dimerization assay” value is < 10 µM.

As to Ac-VHVSVPQELYEWVRR-NH2 [peptide of SEQ ID NO: 232], the “IC50 in IL-17RA/IL7RC dimerization assay” value is < 10 µM.

Turning to Ac-VHVTVPQELYEWVRR-NH2 [peptide of SEQ ID NO: 226], the “IC50 in IL-17RA/IL7RC dimerization assay” value was < 10 µM.

With Ac-IHVTIPQDLWDWINK-NH2 [peptide of SEQ ID NO: 198], the “IC50 in IL-17RA/IL7RC dimerization assay” value was < 10 µM.

Take Ac-IHVTILADLWDWINK-NH2 [peptide of SEQ ID NO: 188]: the “IC50 in IL-17RA/IL7RC dimerization assay” value was < 10 µM.

For the molecule Ac-IHVTIPVDLWDWINK-NH2 [peptide of SEQ ID NO: 195], the “IC50 in IL-17RA/IL7RC dimerization assay” value is < 10 µM.

For Ac-IHVTIPADLWDWANK-NH2 [peptide of SEQ ID NO: 214], the “IC50 in IL-17RA/IL7RC dimerization assay” value is < 10 µM.

For Ac-VRVTIPQELWEWVRR-NH2 [peptide of SEQ ID NO: 233], the “IC50 in IL-17RA/IL7RC dimerization assay” value is < 10 µM.

With Ac-IHVTIPAQLWDWINK-NH2 [peptide of SEQ ID NO: 199], the “IC50 in IL-17RA/IL7RC dimerization assay” value was < 10 µM.

In the case of Ac-IHVTIPADGWDWINK-NH2 [peptide of SEQ ID NO: 202], the “IC50 in IL-17RA/IL7RC dimerization assay” value is < 10 µM.

Take Ac-IHVTIPADPWDWINK-NH2 [peptide of SEQ ID NO: 203]: the “IC50 in IL-17RA/IL7RC dimerization assay” value was < 10 µM.

Consider Ac-VHVTVPQEIYEWVRR-NH2 [peptide of SEQ ID NO: 236], for which the “IC50 in IL-17RA/IL7RC dimerization assay” value was < 10 µM.

For the molecule Ac-IHVTIPADLWDWIQK-NH2 [peptide of SEQ ID NO: 220], the “IC50 in IL-17RA/IL7RC dimerization assay” value was < 10 µM.

On to Ac-IHVTIPADLWNWINK-NH2 [peptide of SEQ ID NO: 208], for which the “IC50 in IL-17RA/IL7RC dimerization assay” value was < 10 µM.

As to Ac-IHVTIPAYLWDWINK-NH2 [peptide of SEQ ID NO: 200], the “IC50 in IL-17RA/IL7RC dimerization assay” value was < 10 µM.

Ac-VHVSIPQELWEWVRR-NH2 [peptide of SEQ ID NO: 230]: the “IC50 in IL-17RA/IL7RC dimerization assay” value was < 10 µM.

With Ac-VHVTIPQEIWEWVRR-NH2 [peptide of SEQ ID NO: 237], the “IC50 in IL-17RA/IL7RC dimerization assay” value is < 10 µM.

In the case of Ac-IHVTIPADLWDWLNK-NH2 [peptide of SEQ ID NO: 216], the “IC50 in IL-17RA/IL7RC dimerization assay” value was < 10 µM.

As to Ac-VHVTVPQELYEWVEE-NH2 [peptide of SEQ ID NO: 229], the “IC50 in IL-17RA/IL7RC dimerization assay” value was < 10 µM.

In the case of Ac-LRISVPADLWDWINK-NH2 [peptide of SEQ ID NO: 240], the “IC50 in IL-17RA/IL7RC dimerization assay” value was < 10 µM.

Turning to Ac-VRAYVPADLWDWINK-NH2 [peptide of SEQ ID NO: 243], the “IC50 in IL-17RA/IL7RC dimerization assay” value is < 10 µM.

Regarding Ac-IHVTIPADIWDWINK-NH2 [peptide of SEQ ID NO: 205], the “IC50 in IL-17RA/IL7RC dimerization assay” value was < 10 µM.

Turning to Ac-IHVTIIADLWDWINK-NH2 [peptide of SEQ ID NO: 190], the “IC50 in IL-17RA/IL7RC dimerization assay” value was < 10 µM.
